Reference: patent US8980255B2, “Treatment of autoimmune disease by modulating annexin-1 (lipocortin 1)” (Queen Mary & Westfield College, priority 2008, dated 2015)
Where no end group is shown, it is not given here.

Legend:
[1] = tested on: murine naïve lymph node T cells; test: T cell proliferation (3H-thymidine incorporation), anti-CD3/CD28 stimulation; format: cell-based
Experimental: Primary murine T cells were prepared from lymph nodes by negative selection. Briefly, axillary, inguinal, and mesenteric lymph nodes were teased apart to make a single cell suspension, then washed and layered over Ficoll. The buffy coat was washed 2 times and then incubated with the antibody mix and the magnetic beads following the manufacturer's instructions (mouse T-cell negative isolation kit; Dynal, Bromborough, United Kingdom). In some experiments, cells were further purified to obtain naive CD62L^+ CD4^+ T cells by using the Miltenyi Biotec CD62L^+ CD4^+ T-cell isolation kit. Th0 conditions were created by T cells for 4 days in 6-well plates precoated with anti-CD3 (5 μg/mL) and anti-CD28 (5 μg/mL) in complete RPMI medium (10% fetal calf serum [FCS], 2 mM L-glutamine, and 100 units mL^−1 gentamycin) containing murine IL-2 (20 U/mL). […]
Purified lymph node T cells (10^5 cells/mL) were incubated with medium alone or with different concentrations of hrAnx-A1 for 2 hours at 37° C. in Eppendorf tubes. […] After 18 hours, cultures were pulsed for 8 hours with 1 μCi (3.7×10^4 Bg) [^3H]-thymidine (Amersham Pharmacia Biotech, Piscataway, N.J.) and incorporated radioactivity was measured by automated scintillation counter (Packard Instruments, Pangbourne, United Kingdom). […]

[2] = tested on: murine naïve lymph node T cells; test: IL-2 production from anti-CD3/CD28 stimulated T cells; format: cell-based
Experimental: The effects of an N-terminal peptide of hrAnx-A1 (peptide Ac 2-26) and of full length hrAnx-A1 on T cell activation were investigated. IL-2 production from murine naïve lymph node T cells was stimulated with 0.6, 1.25 or 2.5 μg/ml of anti-CD3/CD28 in the presence or absence of full length hrAnx-A1 (300 nM) or the Anx-A1 derived N-terminal peptide Ac.2-26 (100 μM) for 24 hrs.

[3] = tested on: murine naïve lymph node T cells; test: CD25 and CD69 cell surface expression by FACS; format: cell-based; details: hrAnx-A1 150, 300, 600 nM; anti-CD3/CD28 1.25-5.0 μg/ml, 12 hrs; FIGS. 3C, 3D
Experimental: Purified lymph node T cells were pretreated with human recombinant Anx-A1 for 2 hours at 37° C. in Eppendorf tubes and then stimulated with plate-bound anti-CD3 and anti-CD28 as indicated in the figures. After 16 hours, the cells were stained with PE-conjugated anti-CD69 (clone H1.2F3) and FITC-conjugated anti-CD25 (clone PC61.5) diluted in FACS buffer (PBS containing 1% FCS and 0.02% […]). Intact cells were gated by using forward and side scatter and were analyzed with the CellQuest program (Becton Dickinson, Franklin Lakes, N.J.) on a FACScan flow cytometer. […]
Murine naïve lymph node T cells were stimulated with anti-CD3/CD28 at a concentration of 1.25 μg/ml (left column), 2.5 μg/ml (middle column) and 5.0 μg/ml (right column), in the absence of (upper panels) or in the presence of (lower panels) hrAnx-A1 (600 nM) for 12 hrs and then analyzed for CD25 and CD69 expression by FACS.
In FIG. 3D, murine naïve lymph node T cells were stimulated with the indicated concentration of anti-CD3/CD28 in the presence of 150 (X), 300 ( ? ) and 600 (◯) nM of hrAnx-A1 for 12 hours and then analysed for CD25 (left graph) and CD69 (right graph) expression by FACS.

[4] = tested on: Activator Protein-1 (AP-1); test: Electrophoretic Mobility Shift Assay for AP-1 activation in T cells; format: cell-based; details: T cells stimulated with anti-CD3/CD28 1.25 μg/ml in presence of hrAnx-A1; FIG. 5A
Experimental: (§1) Nuclear extracts were harvested from 3×10^6 to 5×10^6 cells according to previously described protocols. Nuclear extracts (3 μg to 5 μg) were incubated with 1 μg (for NFAT) or 2 μg (for NF-κB and AP-1) of poly (dI:dC) in 20 μL binding buffer with ^32P end-labeled, double-stranded oligonucleotide probes (5×10^5 cpm), and fractionated on a 6% polyacrylamide gel (29:1 cross-linking ratio) in 0.5% TBE for 2.5 hours at 150 V. The NF-κB and AP-1 binding buffer (10×) contained 100 mM Tris-HCl, (pH 7.5), 500 mM NaCl, 10 mM EDTA, 50% glycerol, 10 mg/mL albumin, 30 mM GTP, 10 mM DTT. The NFAT binding buffer (10×) contained 100 mM Hepes (pH 7.9), 500 mM KCl, 1 mM EDTA, 1 mM EGTA, 50% glycerol, 5 mg/mL albumin, 1% Nonidet P-40, 10 mM DTT. The NF-κB and AP-1 double-stranded oligonucleotide probes were from Promega and the NFAT was from Santa Cruz Biotechnology (Santa Cruz, Calif.).
(§2) Investigations were carried out into how exogenous and endogenous Anx-A1 modulates T cell activation. The three major transcriptional activators of T cells, namely Activator Protein-1 (AP-1), Nuclear Factor-κB (NF-κB) and Nuclear Factor of Activated T cells (NFAT) were analysed in cells stimulated in presence of hrAnx-A1. […]

[5] = tested on: Nuclear Factor-κB (NF-κB); test: Electrophoretic Mobility Shift Assay for NF-κB activation in T cells; format: cell-based; details: T cells stimulated with anti-CD3/CD28 1.25 μg/ml in presence of hrAnx-A1; FIG. 5A
Experimental: as §1, §2

[6] = tested on: Nuclear Factor of Activated T cells (NFAT); test: Electrophoretic Mobility Shift Assay for NFAT activation in T cells; format: cell-based; details: T cells stimulated with anti-CD3/CD28 1.25 μg/ml in presence of hrAnx-A1; FIG. 5A
Experimental: as §1, §2

[7] = tested on: naïve lymph node T cells; test: Th1/Th2 differentiation in vitro, cytokine production on anti-CD3 restimulation; format: cell-based, mice; details: Th1 or Th2 conditions, hrAnx-A1 600 nM, anti-CD3 5.0 μg/ml re-stimulation 8 h; FIG. 7A
Experimental: Primary murine T cells were prepared from lymph nodes by negative selection. Briefly, axillary, inguinal, and mesenteric lymph nodes were teased apart to make a single cell suspension, then washed and layered over Ficoll. The buffy coat was washed 2 times and then incubated with the antibody mix and the magnetic beads following the manufacturer's instructions (mouse T-cell negative isolation kit; Dynal, Bromborough, United Kingdom). In some experiments, cells were further purified to obtain naive CD62L^+ CD4^+ T cells by using the Miltenyi Biotec CD62L^+ CD4^+ T-cell isolation kit. Th0 conditions were created by T cells for 4 days in 6-well plates precoated with anti-CD3 (5 μg/mL) and anti-CD28 (5 μg/mL) in complete RPMI medium (10% fetal calf serum [FCS], 2 mM L-glutamine, and 100 units mL^−1 gentamycin) containing murine IL-2 (20 U/mL). Th1 conditions were created with murine IL-12 (3.4 ng/mL; eBioscience), IL-2 (20 U/mL; eBioscience), and anti-IL4 (clone 11B11; 2 μg/mL). Th2 conditions were created with IL-4 (3000 U/mL; Peprotech, Rocky Hill, N.J.), IL-2 (20 U/mL), and anti-IFN-γ (clone XMG1.2; 2 μg/mL). Jurkat cells were obtained from ATCC (Manassas, Va.) and were cultured in complete RPMI medium.
For Th1/Th2 cytokine production analysis, Th0/Th1/Th2 cells (10^6/mL) obtained after 4-day differentiation in skewing conditions and 1 day of resting in complete RPMI medium, were stimulated with plate-bound anti-CD3 (5 μg/mL) for 8 h in 24-well plates. Culture supernatants were collected and analyzed for IFN-γ, IL-2, IL-4 and IL-10 content by using Th1/Th2 panel ELISA kit (eBioscience). The IL-13 ELISA kit was also purchased from eBioscience.
Naïve lymph node T cells were differentiated in vitro in Th1 (black bars) or Th2 (white bars) conditions in presence or absence of hrAnx-A1 (600 nM) and then restimulated with plate-bound anti-CD3 (5.0 μg/ml) for 8 h to measure Th1 or Th2 cytokine production. Values are mean±S.E. of n=4-5 mice. **P<0.01

[8] = tested on: DBA mice; test: collagen-induced arthritis (CIA) model; format: in vivo; details: 1 μg s.c. twice a day for 12 days after immunization with collagen, compared to PBS vehicle; FIGS. 8A, 8B
Experimental: Mice were injected with hrAnx-A1 daily for 12 days after immunization with collagen (time during which naïve cells differentiate in Th effector cells) and thereafter the progression of the disease upon antigen challenge was analyzed. […] Synchronization of disease onset was obtained by boosting with collagen on day 21, and clinical signs were evident from day 22 (day 1 of the onset of the diseases). Values are mean±S.E. of n=6-8 mice. Groups were compared using the Maim-Whitney test. *P<0.01

CH3CO-AMVSEFLKQA WFIENEEQEYVQTVK (Ac-AMVSEFLKQAWFIENEEQEYVQTVK; listed as Homo sapiens) [Ac.2-26, reference compound]
T cell proliferation ([1]; Ac.2-26, data not shown): increased
IL-2 production ([2]; Ac.2-26 100 μM, anti-CD3/CD28 0.6, 1.25 or 2.5 μg/ml, 24 hrs, FIG. 9): increased

B1: hrAnx-A1: Endotoxin-free human recombinant Anx-A1 (Annexin-1, 37-kDa protein) (protein, UniProt P04083 1-346, looked up)
chain: MAMVSEFLKQAWFIENEEQEYVQTVKSSKGGPGSAVSPYPTFNPSSDVAALHKAIMVKGVDEATIIDILTKRNNAQRQQIKAAYLQETGKPLDETLKKALTGHLEEVVLALLKTPAQFDADELRAAMKGLGTDEDTLIEILASRTNKEIRDINRVYREELKRDLAKDITSDTSGDFRNALLSLAKGDRSEDFGVNEDLADSDARALYEAGERRKGTDVNVFNTILTTRSYPQLRRVFQKYTKYSKHDMNKVLDLELKGDIEKCLTAIVKCATSKPAFFAEKLHQAMKGVGTRHKALIRIMVSRSEIDMNDIKAFYQKMYGISLCQAILDETKGDYEKILVALCGGN
modifications: full-length
cell proliferation ([1]; pre-treatment with hrAnx-A1, anti-CD3/CD28 5.0, 2.5 and 1.25 μg/ml, 24 hrs, FIG. 3A): augmented
IL-2 production ([2]; anti-CD3/CD28 1.25 μg/ml, different concentrations of hrAnx-A1, 24 hrs, FIG. 3B): augmented
cell surface expression of CD25 [3]: augmented
cell surface expression of CD69 [3]: augmented
activation of AP-1 [4]: increased activation
activation of NF-κB [5]: increased activation
activation of NFAT [6]: increased activation
IFNγ production [7]: increased
IL2 production [7]: increased
IL4 release [7]: decrease
IL 10 release [7]: decrease
signs and symptoms of arthritis (paw volume, clinical score) [8]: exacerbated
